B1: Compound 1 (peptide)
peptide: cyclo([dR][dF][dV]YEP)
SMILES: CC(C)[C@H]1NC(=O)[C@@H](Cc2ccccc2)NC(=O)[C@@H](CCCNC(=N)N)NC(=O)[C@@H]2CCCN2C(=O)[C@H](CCC(=O)O)NC(=O)[C@H](Cc2ccc(O)cc2)NC1=O
B2: Compound 11 (peptide)
peptide: cyclo(VP[dL][dW][dV]LRP)
SMILES: CC(C)C[C@@H]1NC(=O)[C@@H](C(C)C)NC(=O)[C@@H](Cc2c[nH]c3ccccc23)NC(=O)[C@@H](CC(C)C)NC(=O)[C@@H]2CCCN2C(=O)[C@H](C(C)C)NC(=O)[C@@H]2CCCN2C(=O)[C@H](CCCNC(=N)N)NC1=O
B3: Compound 5 (peptide)
peptide: cyclo(WVRE[dP][dP])
SMILES: CC(C)[C@@H]1NC(=O)[C@H](Cc2c[nH]c3ccccc23)NC(=O)[C@H]2CCCN2C(=O)[C@H]2CCCN2C(=O)[C@H](CCC(=O)O)NC(=O)[C@H](CCCNC(=N)N)NC1=O
B4: Compound 7 (peptide)
peptide: cyclo(TR[dF]P[dL][dP])
SMILES: CC(C)C[C@H]1NC(=O)[C@@H]2CCCN2C(=O)[C@@H](Cc2ccccc2)NC(=O)[C@H](CCCNC(=N)N)NC(=O)[C@H]([C@@H](C)O)NC(=O)[C@H]2CCCN2C1=O
B5: Compound 2 (peptide)
peptide: cyclo(RT[dV]E[dF][dP])
SMILES: CC(C)[C@H]1NC(=O)[C@H]([C@@H](C)O)NC(=O)[C@H](CCCNC(=N)N)NC(=O)[C@H]2CCCN2C(=O)[C@@H](Cc2ccccc2)NC(=O)[C@H](CCC(=O)O)NC1=O
B6: Compound 3 (peptide)
peptide: cyclo(E[dT][dV]W[dP][dP])
SMILES: CC(C)[C@H]1NC(=O)[C@@H]([C@H](C)O)NC(=O)[C@H](CCC(=O)O)NC(=O)[C@H]2CCCN2C(=O)[C@H]2CCCN2C(=O)[C@H](Cc2c[nH]c3ccccc23)NC1=O
B7: Compound 10 (peptide)
peptide: cyclo(RDYC[dP][dW][dP])
SMILES: N=C(N)NCCC[C@@H]1NC(=O)[C@H]2CCCN2C(=O)[C@@H](Cc2c[nH]c3ccccc23)NC(=O)[C@H]2CCCN2C(=O)[C@H](CS)NC(=O)[C@H](Cc2ccc(O)cc2)NC(=O)[C@H](CC(=O)O)NC1=O
B8: Compound 9 (peptide)
peptide: cyclo([dR]L[dW]W[dT]EP)
SMILES: CC(C)C[C@@H]1NC(=O)[C@@H](CCCNC(=N)N)NC(=O)[C@@H]2CCCN2C(=O)[C@H](CCC(=O)O)NC(=O)[C@@H]([C@H](C)O)NC(=O)[C@H](Cc2c[nH]c3ccccc23)NC(=O)[C@@H](Cc2c[nH]c3ccccc23)NC1=O
B9: Compound 4 (peptide)
peptide: cyclo(RE[dV]W[dP][dP])
SMILES: CC(C)[C@H]1NC(=O)[C@H](CCC(=O)O)NC(=O)[C@H](CCCNC(=N)N)NC(=O)[C@H]2CCCN2C(=O)[C@H]2CCCN2C(=O)[C@H](Cc2c[nH]c3ccccc23)NC1=O
B10: Compound 8 (peptide)
peptide: cyclo([dL]REPWMP)
SMILES: CSCC[C@@H]1NC(=O)[C@H](Cc2c[nH]c3ccccc23)NC(=O)[C@@H]2CCCN2C(=O)[C@H](CCC(=O)O)NC(=O)[C@H](CCCNC(=N)N)NC(=O)[C@@H](CC(C)C)NC(=O)[C@@H]2CCCN2C1=O
B11: Compound 6 (peptide)
peptide: cyclo(YRE[dT][dV][dP])
SMILES: CC(C)[C@H]1NC(=O)[C@@H]([C@H](C)O)NC(=O)[C@H](CCC(=O)O)NC(=O)[C@H](CCCNC(=N)N)NC(=O)[C@H](Cc2ccc(O)cc2)NC(=O)[C@H]2CCCN2C1=O
B12: Tralokinumab (antibody, V domains shown)
VH: QVQLVQSGAEVKKPGASVKVSCKASGYTFTNYGLSWVRQAPGQGLEWMGWISANNGDTNYGQEFQGRVTMTTDTSTSTAYMELRSLRSDDTAVYYCARDSSSSWARWFFDLWGRGTLVTVSS
VL: SYVLTQPPSVSVAPGKTARITCGGNIIGSKLVHWYQQKPGQAPVLVIYDDGDRPSGIPERFSGSNSGNTATLTISRVEAGDEADYYCQVWDTGSDPVVFGGGTKLTVL

Square brackets hold non-standard residues; d marks the D form.

The target in the first assay is T1, Human IL-13 with an Fc-tag (human, UniProt P35225 35-146, limits assumed).
T1 construct: Immobilized on CM5 chip (about 5000 RU); also called Interleukin-13; not shown: Fc-tag
T1 sequence (P35225 35-146 limits assumed): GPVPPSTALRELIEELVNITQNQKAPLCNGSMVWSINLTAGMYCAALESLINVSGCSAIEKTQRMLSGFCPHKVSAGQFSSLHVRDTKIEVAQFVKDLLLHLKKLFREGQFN
Briefly: SPR, BIAcore 8K plus, human IL-13-Fc immobilized on CM5, peptide as analyte, 25 C. A general note: In SPR one partner is held on a chip, and binding of the other changes the refractive index at the surface.
For B1, the Kd (as a rule, the free concentration of one partner at which half of the binding sites on the other are occupied at equilibrium, for simple one-to-one binding) is 16 µM.

As to B2, the Kd was found to be 622 µM.

For the molecule B3, the Kd stood at 47.1 µM.

On to B4, for which the Kd was 85.1 µM.

Take B5: the Kd was 17.4 µM.

Take B6: the Kd turned out to be 22.8 µM.

Consider B7, for which the Kd turned out to be 368 µM.

Turning to B8, the Kd is 337 µM.

For the molecule B9, the Kd was found to be 26.2 µM.

Take B10: the Kd stood at 99.5 µM.

Take B11: the Kd amounted to 55.4 µM.

Another assay has as its target T1, Human IL-13 with an Fc-tag. Briefly: SPR, BIAcore 8K plus, human IL-13-Fc immobilized on CM5, positive control.
B12: the Kd stood at 0.000309 µM.

The values above are taken from patent publication US20230399362A1 (B A I LABORATORIES, published 2023).
